{"source": "paper PMC5513931", "target": "T1, protease-activated receptor 2 (rat (endogenous in isolated Sprague Dawley rat arteries)) (UniProt Q63645)", "T1 sequence": "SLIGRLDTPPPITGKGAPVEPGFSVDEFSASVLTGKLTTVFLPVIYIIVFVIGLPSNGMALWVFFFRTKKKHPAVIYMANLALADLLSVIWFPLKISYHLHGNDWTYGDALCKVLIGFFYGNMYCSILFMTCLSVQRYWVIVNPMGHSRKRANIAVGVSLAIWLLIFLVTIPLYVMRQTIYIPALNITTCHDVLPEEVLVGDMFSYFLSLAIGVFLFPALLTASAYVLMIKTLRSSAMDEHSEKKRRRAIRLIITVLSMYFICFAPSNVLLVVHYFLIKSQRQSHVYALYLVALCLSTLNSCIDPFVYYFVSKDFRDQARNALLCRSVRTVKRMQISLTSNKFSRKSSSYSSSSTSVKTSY", "data": [{"binder": "SLIGRL", "note": "[PAR-2 peptide agonist SLIGRL]", "values": [{"measurement": "EC50 of vasodilatation to SLIGRL (10 nM-10 uM), wire myography, MRA pre-constricted with 1 uM phenylephrine, control", "result": 7.02, "unit": "µM"}, {"measurement": "EC50 of vasodilatation to SLIGRL (100 nM-100 uM), wire myography, basilar artery pre-constricted with 1 uM 5-HT, control", "result": 9.65, "unit": "µM"}, {"measurement": "EC50 of vasodilatation to SLIGRL, wire myography, MRA from heparin-treated rats with 0.1 mM L-NNA, control", "result": 86.4, "unit": "µM"}, {"measurement": "EC50 of vasodilatation to SLIGRL, wire myography, MRA from heparin-treated rats with 0.1 mM L-NNA, pre-incubated with 10 uM apixaban", "result": 6.45, "unit": "µM"}, {"measurement": "EC50 of vasodilatation to SLIGRL, wire myography, MRA from heparin-treated rats, control", "result": 1.04, "unit": "µM"}, {"measurement": "EC50 of vasodilatation to SLIGRL, wire myography, MRA from heparin-treated rats, pre-incubated with 10 uM apixaban", "result": 0.71, "unit": "µM"}, {"measurement": "EC50 of vasodilatation to SLIGRL, wire myography, MRA pre-constricted with 1 uM phenylephrine, pre-incubated with 10 uM apixaban", "result": 1.83, "unit": "µM"}, {"measurement": "EC50 of vasodilatation to SLIGRL, wire myography, MRA with 0.1 mM L-NNA, control", "result": 3.03, "unit": "µM"}, {"measurement": "EC50 of vasodilatation to SLIGRL, wire myography, MRA with 0.1 mM L-NNA, pre-incubated with 10 uM apixaban", "result": 2.27, "unit": "µM"}, {"measurement": "EC50 of vasodilatation to SLIGRL, wire myography, basilar artery pre-constricted with 1 uM 5-HT, pre-incubated with 10 uM apixaban", "result": 4.41, "unit": "µM"}, {"measurement": "EC50 of vasodilatation to SLIGRL, wire myography, basilar artery with 0.1 mM L-NNA, control", "result": 34.1, "unit": "µM"}, {"measurement": "EC50 of vasodilatation to SLIGRL, wire myography, basilar artery with 0.1 mM L-NNA, pre-incubated with 10 uM apixaban", "result": 20.3, "unit": "µM"}]}]}
